The labels stand for the following.
B1: engineered chaperonin protein SP4-5 (designed binder)
chain: DDDRIPASGIVIARPGESAFMPDVVKNAKIALIDSALEIKKTEIEAKVQISDPSKIQDFLNQETNTFKQMVEKIKKSGANVVLCNGDQADVAYDYLAKEGIYAVHFVDESDMEKLAKATGAKIVTDLDDLTPSVLGEAETVEERKYTEGVPTYVMGCKGSVSHHHHHHSEQKLISEEDLLRLE
notes: also called engineered protein clone SP4-5; not shown: FLAG-tag from the expression vector upstream of the insertion site
B2: engineered chaperonin protein SP4-1 (designed binder)
chain: DDDRIPASGIVIDRVGRDSNMPHVVKNAKIALIDSALEIKKTEIEAKVQISDPSKIQDFLNQETNTFKQMVEKIKKSGANVVLCADDYAHVAYDYLAKEGIYAVGYVTESDMEKLAKATGAKIVTDLDDLTPSVLGEAETVEERPWGNNKETYVMGCKGSVSHHHHHHSEQKLISEEDLLRLE
notes: Protein-level screening was 'similar to that for the HP6054 selections', that is, with a FLAG-tag vector and anti-FLAG-HRP detection; not shown: FLAG-tag from the expression vector upstream of the insertion site
B3: engineered chaperonin protein SP4-2 (designed binder)
chain: DDDRIPASGIVIVGHNKVPSMPRVVKNAKIALIDSALEIKKTEIEAKVQISDPSKIQDFLNQETNTFKQMVEKIKKSGANVVLCGYKNLTVAYEYLAKEGIYAVYHVDESDMEKLAKATGAKIVTDLDDLTPSVLGEAETVEERGTANAPATYVMGCKGSVSHHHHHHSEQKLISEEDLLRLE
notes: not shown: FLAG-tag from the expression vector upstream of the insertion site
B4: engineered rubredoxin protein D7 (designed binder)
chain: MAKWVCKICGYIYDEDAGEDPGHRSRYISPGTKFEELTTGWTCPICRCTNSTTSTNCFEKLED
notes: Engineered Pyrococcus furiosus rubredoxin; No tags are stated for the assayed construct
B5: engineered rubredoxin protein F3 (designed binder)
chain: MAKWVCKICGYIYDEDAGFVEYYDDGVISPGTKFEELHTAWTCPICSCTYNPFEKLED
notes: as for B4
B6: engineered rubredoxin protein G3 (designed binder)
chain: MAKWVCKICGYIYDEDAGFVEYYGHPNISPGTKFEELSRYVDGWTCPICSYGMPIFEKLED
notes: Engineered Pyrococcus furiosus rubredoxin

For the first experiment, the target named is T1, human chorionic gonadotropin (human, UniProt P01215 25-116; P0DN86 21-165, biotinylated using an NHS-SS-biotin reagent (sites not given)).
T1 construct: The target was biotinylated and immobilized on Neutravidin- or Streptavidin-coated strip plates; also called hCG
T1 sequence (P01215 25-116, chain 1 of 2, other chains not shown): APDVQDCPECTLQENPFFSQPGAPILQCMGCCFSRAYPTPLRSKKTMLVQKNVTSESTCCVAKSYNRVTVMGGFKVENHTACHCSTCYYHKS
As to the kind of experiment: affinity ELISA, hCG immobilized, serial dilution of engineered protein. The text has this:
A total of 192 plaques were screened from the PEG precipitated and non-PEG precipitated eluted phage of round three (FIG. 9). Screening at the phage and protein level was similar to that for the HP6054 selections. The screen identified three engineered chaperonin proteins that were solubly expressed in E. coli and could bind hCG. Both the PEG-precipitated and non-PEG-precipitated selections gave similar results. In these affinity ELISA assays, the engineered chaperonin was serially diluted and the ELISA signal was plotted as a function of engineered chaperonin concentration to determine EC₅₀s, as above. The following EC₅₀ values for the three engineered library proteins was measured: […]
For orientation: In an ELISA, binding on a coated surface is turned into a signal by an enzyme label.
As a reminder, the EC50 is the concentration at which the effect is half-maximal. Lower therefore signals an effect from little substance. B1: it took 0.63 µM to reach a half-maximal effect (EC50).

As to B2, a half-maximal response (EC50) required 5.4 µM.

The molecule B3 displayed an EC50 of 48 µM.

The target in another experiment is T1, human chorionic gonadotropin. Kind of experiment: affinity ELISA, hCG immobilized, serial dilution of engineered rubredoxin. The source says: The method used to identify engineered rubredoxin proteins that bind to human chorionic gonadotropin (hCG) were the same as the method used to identify chaperonin proteins that bind to hCG described in Section 6.9.6, above. The method identified three engineered rubredoxin proteins that could bind hCG. In the affinity ELISA assays, the engineered rubredoxin was serially diluted and the ELISA signal was plotted as a function of engineered rubredoxin concentration to determine EC₅₀s, as above. The following EC₅₀ values for the three library proteins was measured: […]
The molecule B4 displayed a concentration giving a half-maximal response (EC50) of 4000 nM.

Take B5: the half-maximal effective concentration (EC50) was found to be 35 nM.

Molecule B6 had an EC50 of 81 nM.

(Values after US20040009530A1 (ZYOMYX, published 2004).)
